For one substance, stoichiometry N results are on record in article PMC6813330.

By stoichiometry N is commonly meant the number of molecules, sites or subunits per partner or assembly.

The test deals with IbpS (iron-binding protein secreted), translocated region of D. dadantii IbpS (residues 28-372) (Dickeya dadantii 3937). Put plainly: SEC-MALS; Superdex S200 5/150 GL increase; 25 µl IbpS at 10 mg/ml in 50 mM Tris-Cl pH 7.0, 100 mM NaCl. (In general: SEC sorts molecules by how far they enter the pores of the column.)

The substance “IbpS (iron-binding protein secreted), translocated region of D. dadantii IbpS (residues 28-372) (natural protein)” registered a stoichiometry N of 2.
